Reference: patent US20170296640A1 (IMMATICS BIOTECHNOLOGIES, published 2017)

Target: T1, HLA-A*02:01 (peptide-receptive MHC class I monomer after UV cleavage of the UV-sensitive ligand) (human)
T1 construct: MHC monomers loaded by UV-ligand exchange and captured on streptavidin plates
Test: UV ligand-exchange ELISA; exchange yield grade (+ >=10%, ++ >=20%, +++ >=50%, ++++ >=75%)
Outline: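 Binding capacity is expressed as the yield of UV-mediated ligand exchange, reflecting how well each peptide stabilizes peptide-receptive MHC. Stabilized complexes are read out by anti-β2m HRP ELISA (450 nm) after streptavidin capture, with refolded MLA-001 monomer standards for quantitation.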

binding result | peptide exchange yield [%] | Binder
binds | – | DIFDAMFSV [DIFDAMFSV (SEQ ID NO: 54)]
– | ≥ 75 | QIAAFLFTV [QIAAFLFTV (SEQ ID NO: 68)]
– | 50 to 75 | MLQDGIARL [MLQDGIARL (SEQ ID NO: 98)]
– | 10 to 20 | LLNFSPGNL [LLNFSPGNL (SEQ ID NO: 97)]
– | 50 to 75 | LLAGQATTAYF [LLAGQATTAYF (SEQ ID NO: 94)]
– | 20 to 50 | AMKEEKEQL [AMKEEKEQL (SEQ ID NO: 79)]
– | 50 to 75 | GLAPAEVVVATVA [GLAPAEVVVATVA (SEQ ID NO: 85)]
– | 20 to 50 | HLSSTTAQV [HLSSTTAQV (SEQ ID NO: 91)]
– | 50 to 75 | GLQDLLFSL [GLQDLLFSL (SEQ ID NO: 56)]
– | 50 to 75 | YLFDEIDQA [YLFDEIDQA (SEQ ID NO: 80)]
– | 50 to 75 | GLATIRAYL [GLATIRAYL (SEQ ID NO: 86)]
– | ≥ 75 | SLLGNSPVL [SLLGNSPVL (SEQ ID NO: 51)]
– | 20 to 50 | GLFARIIMI [GLFARIIMI (SEQ ID NO: 87)]
– | ≥ 75 | SLLNKDLSL [SLLNKDLSL (SEQ ID NO: 61)]
– | ≥ 75 | VLLEDVDAAFL [VLLEDVDAAFL (SEQ ID NO: 52)]
– | 50 to 75 | RLHREVAQV [RLHREVAQV (SEQ ID NO: 59)]
– | ≥ 75 | SLDLRPLEV [SLDLRPLEV (SEQ ID NO: 74)]
– | ≥ 75 | KLAPIPVEL [KLAPIPVEL (SEQ ID NO: 66)]
– | ≥ 75 | LQIGDFVSV [LQIGDFVSV (SEQ ID NO: 57)]
– | 50 to 75 | FLQELQLEHA [FLQELQLEHA (SEQ ID NO: 84)]
– | ≥ 75 | LLATVNVAL [LLATVNVAL (SEQ ID NO: 67)]
– | 50 to 75 | GLFDNRSGLPEA [GLFDNRSGLPEA (SEQ ID NO: 88)]
– | ≥ 75 | VLIEILQKA [VLIEILQKA (SEQ ID NO: 70)]
– | 50 to 75 | FLLDLDPLL [FLLDLDPLL (SEQ ID NO: 9)]
– | ≥ 75 | ILVEVDLVQA [ILVEVDLVQA (SEQ ID NO: 55)]
– | 50 to 75 | FLMDDNMSNTL [FLMDDNMSNTL (SEQ ID NO: 83)]
– | 20 to 50 | TLQEETAVYL [TLQEETAVYL (SEQ ID NO: 72)]

binding result | peptide exchange yield [%] | Binder
– | ≥ 75 | FLREYFERL [FLREYFERL (SEQ ID NO: 53)]
– | 50 to 75 | LLLNENESLFL [LLLNENESLFL (SEQ ID NO: 96)]
– | 50 to 75 | SLLIDVITV [SLLIDVITV (SEQ ID NO: 60)]
– | ≥ 75 | NLLGMIFSM [NLLGMIFSM (SEQ ID NO: 7)]
– | 50 to 75 | KLLFEIASA [KLLFEIASA (SEQ ID NO: 92)]
– | 50 to 75 | ALIEEAYGL [ALIEEAYGL (SEQ ID NO: 63)]
– | 50 to 75 | FLIDGSSSV [FLIDGSSSV (SEQ ID NO: 82)]
– | 50 to 75 | TLITLPLLFL [TLITLPLLFL (SEQ ID NO: 6)]
– | 20 to 50 | FIFSYITAV [FIFSYITAV (SEQ ID NO: 81)]
– | ≥ 75 | FLVEVSNDV [FLVEVSNDV (SEQ ID NO: 64)]
– | ≥ 75 | ALLDVSNNYGI [ALLDVSNNYGI (SEQ ID NO: 77)]
– | 50 to 75 | RLIRTIAAI [RLIRTIAAI (SEQ ID NO: 100)]
– | 50 to 75 | GLTALHVAV [GLTALHVAV (SEQ ID NO: 89)]
– | 50 to 75 | NLTDVSPDL [NLTDVSPDL (SEQ ID NO: 65)]
– | ≥ 75 | TLLAFPLLL [TLLAFPLLL (SEQ ID NO: 69)]
– | 50 to 75 | YLGEEYPEV [YLGEEYPEV (SEQ ID NO: 73)]
– | ≥ 75 | ALAPYLDLL [ALAPYLDLL (SEQ ID NO: 62)]
– | 50 to 75 | LLFDLIPVVSV [LLFDLIPVVSV (SEQ ID NO: 95)]
– | ≥ 75 | VLLDYVGNVQL [VLLDYVGNVQL (SEQ ID NO: 71)]
– | ≥ 75 | ALADLVPVDVVV [ALADLVPVDVVV (SEQ ID NO: 76)]
– | ≥ 75 | KLLGSLQLL [KLLGSLQLL (SEQ ID NO: 93)]
– | 50 to 75 | HLDEVFLEL [HLDEVFLEL (SEQ ID NO: 90)]
– | 50 to 75 | ALYAVIEKA [ALYAVIEKA (SEQ ID NO: 8)]
– | 50 to 75 | AALKYIPSV [AALKYIPSV (SEQ ID NO: 75)]
– | 50 to 75 | QLAPFLPQL [QLAPFLPQL (SEQ ID NO: 58)]
– | 50 to 75 | AMEEAVAQV [AMEEAVAQV (SEQ ID NO: 78)]
– | 20 to 50 | QLYDGATALFL [QLYDGATALFL (SEQ ID NO: 99)]
